Patent US6673896

Molecular target: T4 glycoprotein (human T cell surface protein T4) (human) (UniProt P01730)
Assay: cell-based or functional assay

OKT4A monoclonal antibody
VSV PSEUDOTYPE TITER, VSV(AIDS) +αT4A, CEM(T4+) cells: 200 PFU/ml
VSV PSEUDOTYPE TITER, VSV(AIDS) +αT4A, HSB2-T4+ cells: 300 PFU/ml
VSV PSEUDOTYPE TITER, VSV(AIDS) +αT4A, HeLa-T4+ cells: 200 PFU/ml
VSV PSEUDOTYPE TITER, VSV(AIDS) +αT4A, Raji-T4+ cells: 150 PFU/ml
